Experimental data published in US20180265572A1 (Bristol-Myers Squibb, published 2018).
Numbering of substitutions follows the chain as printed. In names and notes the source's numbering stands.

What was measured:
human IGF-IR on cells [1] = biological target: T1, human IGF-IR on cells (human, UniProt P08069 31-1367); experiment: competitive blocking assay on R+ cells overexpressing human IGF-IR; competitor 200 nM IRDye 800CW-labelled AT580-PEG20-AT580
T1 construct: whole, on cells; also called cell surface IGF-IR
Method: Certain tandem constructs were evaluated for their ability to compete with mono-specific IGF-IR and VEGFR-2 binders in vitro.
R⁺, a gift from Renato Baserga (Thomas Jefferson University, Philadelphia, Pa.), is a mouse embryo fibroblast overexpressing human IGF-IR in the context of a deletion in the mouse IGF-IR gene. Cells were plated in 96 well plates at a concentration of 20,000 cells per well in DMEM (Invitrogen, Carlsbad, Calif.) containing 5% calf serum (Hyclone, Logan, Utah). The following day, cells were washed twice in serum free DMEM containing 0.1% BSA (Invitrogen, Carlsbad, Calif.). After the washes, the cells were incubated at 4° C. for 10 minutes in binding buffer (serum free DMEM+0.1% BSA) containing increasing concentrations of IGF-IR antagonists or controls. Typical controls included the mono-specific ¹⁰Fn3-based IGF-IR binder (AT580-PEG40, SEQ ID NO: 27) (positive control) or the mono-specific ¹⁰Fn3-based VEGFR2 binder (Peg-V2Bshort, SEQ ID NO: 28) (negative control). Following this brief exposure to antagonists, R⁺ cells were additionally exposed to 200 nM of a bi-valent ¹⁰Fn3-based IGF-IR binder (AT580-PEG20-AT580, SEQ ID NO: 27) labeled with IRDye 800CW according to the manufacturer instructions (Li-Cor Biosciences, Lincoln, Nebr.). […] The resulting data was analyzed using GraphPad Prism (GraphPad Software, La Jolla, Calif.).

human IGF-IR on cells [2] = biological target: T1, human IGF-IR on cells; experiment: cell-based or functional assay
human IGF-IR-Fc fusion [3] = biological target: T2, human IGF-IR-Fc fusion (human, UniProt P08069 31-932); experiment: SPR (Biacore), IGF-IR-Fc captured on anti-human IgG, binder in solution (n of 1); IGF-IR domain; IGF-IR-Fc; n of 1
T2 construct: range 1-932; If it counts on the precursor, it includes the signal peptide; also called IGF1R-Fc; not shown: hinge and constant regions of human IgG
Method: (§1) A concentration series of the midscale purification of the tandem construct 385A08-Fn-V2B (non pegylated, his-tagged version, SEQ ID NO: 8) was also evaluated. The functionality of each of the domains of this construct, specifically, the V2B domain, and the IGF-IR domain, was evaluated as described in the materials and methods section below.
Another method to assess the functionality of the IGF-IR domain is to capture the IGF—IR-Fc on anti-human IgG (GE, Piscataway, N.J.). This was done for the midscale purified construct 385A08-Fn-V2B (non-pegylated, his-tag) as described in Example 5 above. The anti-human IgG was immobilized on flow cells 1 and 2 of a CM5 chip surface according the manufacturer's instructions. 100 nM human IGF—IR-Fc was injected for 2 minutes at 10 ul/min on flow cell 2. Subsequently a concentration series of the midscale prep was injected across both flow cell surfaces at 50 uL/min. Two injections of 50 mM Glycine pH 1.7 were used to regenerate the surface.

VEGFR2-Fc (R&D Systems) [4] = biological target: T3, VEGFR2-Fc (R&D Systems) (UniProt P35968 20-764); experiment: SPR (Biacore), VEGFR2-Fc immobilised directly on a CM5 chip, binder in solution; V2B domain; VEGFR2-Fc
T3 construct: Bought reagent; not shown: Fc part of the bought fusion; not described
Method: (§2) The functionality of the V2B domain was assessed by evaluating a concentration series of the midscale and large scale purification of the tandem construct 385A08-Fn-V2B (pegylated, and non-pegylated versions, his-tag and non-his-tag versions) vs. VEGFR2-Fc that was directly immobilized on a CM5 chip surface (GE, Piscataway, N.J.). VEGFR2-Fc (R&D Systems, MN) was diluted to 12 ug/mL in 50 mM Acetate pH 5.0 for an immobilization level of ˜1300 RU. Varying concentrations of 385A08-Fn-V2B in the solution phase were monitored for association (2 minutes) and dissociation (10 minutes) kinetics at a flow rate of 50 uL/min. Two 30 second injections of 50 mM glycine pH 1.7 were used to regenerate the surface.

human IGF-IR-Fc fusion [5] = biological target: T2, human IGF-IR-Fc fusion; experiment: SPR (Biacore), IGF-IR-Fc captured on Protein A/G, HTPP purified binder in solution, n=1, KD approximate
VEGFR2-Fc (R&D Systems) [6] = biological target: T3, VEGFR2-Fc (R&D Systems); experiment: SPR (Biacore), VEGFR2-Fc immobilised directly on a CM5 chip, binder in solution; V2B domain; VEGFR2-Fc; average
Method: as §1, §2

[7] = biological target: VEGFR2 fusion protein on Ba/F3 cells (extracellular domain of hVEGFR2 and intracellular domain of hEpoR) (human, UniProt P35968 20-764; P19235 274-508, limits assumed); experiment: cell-based or functional assay
human IGF-IR on cells [8] = biological target: T1, human IGF-IR on cells; experiment: cell-based or functional assay; remark: listed apart in the source
human IGF-IR-Fc fusion [9] = biological target: T2, human IGF-IR-Fc fusion; experiment: SPR (Biacore), binding to IGF-IR-Fc, n=1
VEGFR2-Fc (R&D Systems) [10] = biological target: T3, VEGFR2-Fc (R&D Systems); experiment: SPR (Biacore T100), VEGFR2-Fc immobilised directly on a CM5 chip; average over constructs; average over midscale and large scale material, with and without his tag; VEGFR2-Fc
Method: (§3) Affinity data was also measured from midscale and large scale material, for the pegylated version of the tandem construct 385A08-Fn-V2B-cys (SEQ ID NO: 9, with and without his tag). The specific materials and methods for these calculations are described below.
(§4) An alternative method is to capture the IGF—IR-Fc on Protein A. This method was used for calculating the affinity and kinetics of certain versions of the construct 385A08-Fn-V2B-cys (both pegylated and non-pegylated and with or without his tag) from midscale and large scale materials. Specifically, IGF—IR-Fc was captured on Protein A immobilized on a Biacore CM5 sensor chip by amine coupling. VEGFR2-Fc was immobilized directly on a CM5 chip by amine coupling. […] Sensorgrams were obtained at each concentration and were evaluated using Biacore T100 evaluation software to determine the rate constants kₐ (kₒₙ) and kd (koff).
as §2, with “VEGFR2-Fc (R&D Systems, MN) was diluted to 12 ug/mL in 50 mM Acetate pH 5.0 for an immobilization level of ˜1300 RU.” left out, “Two 30 second injections of 50 mM glycine pH 1.7 were used to regenerate the surface.” left out

human IGF-IR-Fc fusion [11] = biological target: T2, human IGF-IR-Fc fusion; experiment: SPR (Biacore T100), IGF-IR-Fc captured on Protein A; average over constructs; average over midscale and large scale material, with and without his tag; IGF1R
Method: as §3
(§5) An alternative method is to capture the IGF—IR-Fc on Protein A. This method was used for calculating the affinity and kinetics of certain versions of the construct 385A08-Fn-V2B-cys (both pegylated and non-pegylated and with or without his tag) from midscale and large scale materials. Specifically, IGF—IR-Fc was captured on Protein A immobilized on a Biacore CM5 sensor chip by amine coupling. VEGFR2-Fc was immobilized directly on a CM5 chip by amine coupling. The affinity and kinetic analysis involved the capture of IGF—IR-Fc on Protein A followed by injection of the tandem adnectin in solution over IGF—IR-Fc and VEGFR2-Fc. The analytical surface was regenerated between samples with glycine pH 1.5. Sensorgrams were obtained at each concentration and were evaluated using Biacore T100 evaluation software to determine the rate constants kₐ (kₒₙ) and kd (koff).

VEGFR2-Fc (R&D Systems) [12] = biological target: T3, VEGFR2-Fc (R&D Systems); experiment: SPR (Biacore T100), VEGFR2-Fc immobilised directly on a CM5 chip; average over constructs; average over midscale and large scale material, with and without his tag; VEGFR2
Method: as §3, §4
as §2, with “VEGFR2-Fc (R&D Systems, MN) was diluted to 12 ug/mL in 50 mM Acetate pH 5.0 for an immobilization level of ˜1300 RU.” left out, “Two 30 second injections of 50 mM glycine pH 1.7 were used to regenerate the surface.” left out

human IGF-IR-Fc fusion [13] = biological target: T2, human IGF-IR-Fc fusion; experiment: SPR (Biacore T100), IGF-IR-Fc captured on Protein A; average over constructs; average over midscale and large scale material, with and without his tag; IGF1R-Fc
Method: as §3, §5

B1: AT580-PEG40 (designed binder)
chain: MGVSDVPRDLEVVAATPTSLLISWSARLKVARYYRITYGETGGNSPVQEFTVPKNVYTATISGLKPGVDYTITVYAVTRFRDYQPISINYRTEIDKPCQ
modifications: 40 kDa PEG at position 98 (cysteine)
IC50 (human IGF-IR on cells [1]): 600 nM | IC50 for inhibition of pIGF-1R activity, Western blot, HMVEC-L cells stimulated with VEGF and IGF-1 (human IGF-IR on cells [2]): 100 nM

B2: 385A08-Fn-V2B (non pegylated, his-tagged version) (designed binder)
chain: GVSDVPRDLEVVAATPTSLLISWSARLKVARYYRITYGETGGNSPVQEFTVPKNVYTATISGLKPGVDYTITVYAVTRFRDYQPISINYRTEIDKPSTSTSTVSDVPRDLEVVAATPTSLLISWRHPHFPTRYYRITYGETGGNSPVQEFTVPLQPPTATISGLKPGVDYTITVYAVTDGRNGRLLSIPISINYRTEIDKPSQHHHHHH
notes: also called 385A08-Fn-V2B (Ser tail); 385A08-Fn-V2B (with his tag)
Kd (human IGF-IR-Fc fusion [3]): ~0.02 nM | koff (human IGF-IR-Fc fusion [3]): 0.00017 s⁻¹ | kon (human IGF-IR-Fc fusion [3]): 1.1e+07 M⁻¹ s⁻¹ | Kd (VEGFR2-Fc (R&D Systems) [4]): ~0.3 nM | Kd (human IGF-IR-Fc fusion [5]): ~0.3 nM | koff (VEGFR2-Fc (R&D Systems) [6]): 0.00045 s⁻¹ | kon (VEGFR2-Fc (R&D Systems) [6]): 1.4e+06 M⁻¹ s⁻¹ | IC50, inhibition of VEGF-A dependent proliferation of Ba/F3 cells [7]: 1 nM | IC50, inhibition of proliferation of Rh41 cells (n=1) (human IGF-IR on cells [8]): 26 nM

B3: AT577 (designed binder)
chain: B1 chain with C98S
Kd (human IGF-IR-Fc fusion [9]): 0.076 nM

B4: pegylated version of the tandem construct 385A08-Fn-V2B-cys (with and without his tag) (designed binder)
chain: MGVSDVPRDLEVVAATPTSLLISWSARLKVARYYRITYGETGGNSPVQEFTVPKNVYTATISGLKPGVDYTITVYAVTRFRDYQPISINYRTEIDKPSTSTSTVSDVPRDLEVVAATPTSLLISWRHPHFPTRYYRITYGETGGNSPVQEFTVPLQPPTATISGLKPGVDYTITVYAVTDGRNGRLLSIPISINYRTEIDKPCQ
modifications: PEG on the single cysteine at position 203
notes: also called the various constructs tested
koff (VEGFR2-Fc (R&D Systems) [10]): 0.000102 s⁻¹ | kon (VEGFR2-Fc (R&D Systems) [10]): 11500 M⁻¹ s⁻¹ | Kd (human IGF-IR-Fc fusion [11]): 0.84 nM | Kd (VEGFR2-Fc (R&D Systems) [12]): 10.5 nM | koff (human IGF-IR-Fc fusion [13]): 0.000247 s⁻¹ | kon (human IGF-IR-Fc fusion [13]): 315000 M⁻¹ s⁻¹
